Earlier results in patent US4259319A, “Antibiotic auromomycin, and process for production thereof” (Kanegafuchi Chemical Industry Company, Limited, priority 1977, dated 1981).

Legend:
[1] = comparison substance
Gram-positive bacteria = settings: comparison substance

In the case of neocarcinostatin, the isoelectric point [1] is given as 3.5 pH and the Antibacterial activity (Gram-positive bacteria) is given as “inhibiting only Grampositive bacteria”.
